As a reminder, the Kd is a measure of binding affinity in units of concentration.

The labels stand for the following.
B1: wild type GSI motif peptide (…), SMRT amino acids 1450-1469 with an amino-terminal cysteine [modified: BODIPY-TMR coupled to the N-terminal cysteine; BODIPY-TMR coupled to the N-terminal cysteine] [not stated] (parent)
chain 1: CPRPLKEGSITQGTPLKYDTG
chain 2: TKPRFTTGLVYDTLMLKHQCTCGSSSSHPEHAGRIQSIWSRLQETGLRGKCECIRGRKATLEELQTVHSEAHTLLYGTNPLNRQKLDSKKLLGSLASVFVRLPCGGVGVDSDTIWNEVHSAGAARLAVGCVVELVFKVATGELKNGFAVVRPPGHHAEESTPMGFCYFNSVAVAAKLLQQRLSVSKILIVDWDVHHGNGTQQAFYSDPSVLYMSLHRYDDGNFFPGSGAPDEVGTGPGVGFNVNMAFTGGLDPPMGDAEYLAAFRTVVMPIASEFAPDVVLVSSGFDAVEGHPTPLGGYNLSARCFGYLTKQLMGLAGGRIVLALEGGHDLTAICDASEACVSALLGNELDPLPEKVLQQRPNANAVRSMEKVMEIHSKYWRCLQRTTSTAGRSLIEAQTCENEEAETVT

The variants in the assay derive from B1. Nature of the assay: fluorescence anisotropy. The conditions noted are these: with HDAC4 catalytic domain.
chain 1 CPRPLKEGTITQGTPLKYDTG: the Kd was greater than 1000 µM. As to chain 1 CPRPLKEGAITQGTPLKYDTG, the Kd is greater than 1000 µM. Turning to chain 1 CPRPLKEASITQGTPLKYDTG, the Kd was greater than 1000 µM. For chain 1 CPRPLKEGSITQGSPLKYDTG, the dissociation constant Kd is greater than 1000 µM. For chain 1 CPRPLKEGSITQATPLKYDTG, the Kd was greater than 1000 µM. For the variant chain 1 CPRPLKEGSATQGTPLKYDTG, the Kd is greater than 1000 µM. Take chain 1 CPRPLKEGSDTQGTPLKYDTG: the equilibrium dissociation constant (Kd) was greater than 1000 µM.

For the origin of these results see PMC4505066, “Insights into the Recruitment of Class IIa Histone Deacetylases (HDACs) to the SMRT/NCoR Transcriptional Repression Complex” (The Journal of Biological Chemistry, 2015).
